In the supplement of paper PMC12636428:

system: Saccharomyces cerevisiae; test: transcriptional activation domain activity (GFP:mCherry ratio, weighted mean of sorted bins, harmonized to initial dataset scale) (arbitrary fluorescence ratio units); higher = stronger transcriptional activation; settings: beta-estradiol 1 µM; induction time 4 h
Outline: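 In diploid yeast carrying a GFP reporter, barcoded protein tiles fused to an estradiol-inducible synthetic transcription factor were integrated at the URA3 locus. Cultures diluted 1:5 into SC with 1 uM beta-estradiol were kept at 30 °C for 4 hours, then sorted by GFP:mCherry ratio into 8 bins before barcode sequencing. Tiles with under 50 reads were excluded. The activation activity reported here is the read-weighted mean of bin median fluorescence, averaged across barcodes and linearly rescaled to the initial dataset.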

| Sequence | transcriptional activation domain activity |
| --- | --- |
| AATSEATTVFWHDPSGFVDRLLGLTRFWFFTLLRYSYRVYFLASRERSRKPLS | 66100 |
| NASPAAVVATTATATPERAVSAAAGDNNASTLTKRGRGRPRKAAKHTQAQTQA | 36500 |
| GEEARDRGHRSGSGRHRSRDRERRRRRDRDDDRHTSSRHSRRERSPEEDSSRR | 36700 |
| MSMGIEFPFFTFRFSPSPLLLLLPFPPPFLPPFCLSAFFPSPLSPLPFPFLPS | 51400 |
| RAYGLLKRYILVPATFGYRCAQNIGWCTIPPRVQSLTIFAFVILNLILCCISY | 58000 |
| RSRAEGGSSPGRGGSEDGAGAGKPGKERRDKSRGARAKQCGCKAVNQDKSCEC | 21900 |
| KLRGYGFVCQMLQLPIVVLQRTKWVRGRETLNNVCFWASMILGLSLVRCLFPL | 50200 |
| AFLLFLIYLTFFCWVCFATSATWVWTEILSDNQYTESFMPINDVLLAVLSGII | 47600 |
| DEVLKPLWLGIRLHRGKGLAAFLKAIGFIIPLMDPNTLTVILIREFQTSDEEM | 15100 |
| MYVISGFVFLIGLLLFVMLFDTTHLCVLVLFSFLYHSGSLCRPCHTPVILLYF | 44000 |
| AYTDEDDAHQIRRKQLSMVLRGMPSVFDSLTHARVYLELIFRQMEHYLYVAAT | 42200 |
| MCYQGQHVYLNHEVFAQSLLAVGFARCQVRLMWVAGIRPIVRVSTNNFLGSIR | 44800 |
| RLCPRLGLVELFFKNSAELSKVLKALGAAAATTLCTVVFPGYSHRLSFLQWYP | 62400 |
| MGLTVFSILYIPLNIIPPFFCCCLYIYHCFSFFSSTFILFFFFFGTVFAQVIL | 53200 |
| SWRDPSYIYSKIGLCSTASLFLGLSFLNQPVSLQGVQNQIFSFFMLLVIQVFM | 60200 |
| RPPPRPPPQTPASPSPSPTSTTPPRSPSASRASPARPHPPSGRRTRTTRAPRR | 56300 |
| LALQTMYFIPDIPQQALVDFWPRIWPWVQFFDIYGDIIRLCPPLQLYWVFFAY | 25500 |
| YVGRSVLIHQSHGSFEILILWNHYPLLCFFFCHGRRRVFSARLSLLLFCLCRF | 54700 |
| FFFSGTALRGIYVGCLVFLVLLWFLHMFFILFTFPFFFVLVWVLLFFRELHFA | 50600 |
| MFVNLFFSLLTPICTLCFFCNPLSLPLPFFPSHLFPLFSILPLLFFFFFLCCY | 46200 |
| VSSCCPFPLFLFFSFFLSFFLPFLLSSFLSITQSSWPPFHCPCQDTFPFSLPF | 28000 |
| EYAPKTPVVAAAVPKEEKKEEKAEEVKEAKEEENKEIKDEKKDTRKSRSASRK | < 6570 |
| HAVTYWMCLELTIHLFYTFNRRSTLYFWSILVSICSIISMTILLELIIFVYPL | 56200 |
| KQLAKKTESFSGSDLKHLCVSAALDAVKERVTVPWRHSTTSAPSSSAPAEAQP | 19000 |
| MIPLQVLSLIDAKNLILLLTKFFSCVALSSCLYWDSCYNLIHGYLVLYKIIYT | 59400 |

| Sequence | transcriptional activation domain activity |
| --- | --- |
| WYWLATTMYFLYGESVIYYFKHVVLVDKVLLPLATHHRFISFMLYIIGFVFFV | 60400 |
| MGTTGWRTRAIPYGFVFFYFILVMSLFFSSPLLTTTAVFILFYLLFLFSCYSS | 36000 |
| EEREEEKEEEKEEKEQEKKKEEETRRRIRSRKRRGARRRETMRKTSQRGNRKK | 25200 |
| FFLALSFRDALAATSMMNLNNCMADPLLGKWVCQLLPSLTSILMFTVELVLFF | 63800 |
| DELSRQKLGPDLHTILANLPGDLFGIYSRFLRPIHPRDFIHVARFLRWLLYAW | 69500 |
| DEGESAAPADSAAQAQHLDATKKGHYKLSSFISHKGPSVHCGHYVSHIKKGDQ | 51800 |
| SMHCGVVPCCFFVCLCLISFVYLEISIIFLGHSFFLSLSFFYIMNLFYTWWVS | 25200 |
| NLDFDFALPQTATAPDAKTVLPIPELDDAVVESFFSSSTDSTPMFEYENLEDN | 91700 |
| MMRSAANMGLISQPSNLLLVVQPCPPLLLCVLFPPPLSSYCLLLSLSLLLFFF | 38500 |
| LFTSIYYIIILSRSCLFFLFSLPLFQDALFLFVDSVQLYMWGILLFILSSLFF | 42900 |
| WLPFPESLGSSYRMPGIEPYVDFVMGRILAKKLPELLDSCQILMLRWKCLCFI | 63200 |
| CLAGKDLFGTLFGLRVIIQVVGILMSIPHTLVVTTRWIRRMLLVYFLDQLYYT | 80600 |
| RAPRTSPHQHKPAPVPAAALARTSPHPRQHQHQHASRAPPAASPHPRQHQEHQ | 31300 |
| MDLYFMDLFIVILWCGFIVYLVYFLFFYYESGLVYLYIINSMGLCCESGVLFV | 67500 |
| VVALVADPEFQRELAYVLCGQSILVRWPAKILNGLWLYCHLLQQAILPWFIFY | 52600 |
| FTKTIMHITLILNILMNMCVAPTLLPLQVYYWLTKYYCACHGCLPHFTVIALF | 60900 |
| IHFFFFGGTYFFFFCQWGFGGFFFSFLTFIPFFSYIFHIFHYAVLWLWLWLWL | 59800 |
| MRDISTLTVCCPLLFFLNLLHFLCFSLCFSLTYFINCLTFLLFLYISFFIKLF | 42800 |
| HLLSPHIAPELIELLVVRTFLQPHPWPVPSCATTGFLRTLAWISRWAWRHSPL | 43900 |
| CLCLILLALLAVELMALFVVITLVILLLIVIVLSLILLFANLMLPLVFLLLYI | 26400 |
| TTLTEKGSQVMEKNMDQLDSVHNLNDDDLQQLLEDLGNIDHSDEKLWKEITDQ | 93200 |
| VNDIYDSSRSRACNACRNSKVRCEQPRPDHPCKRCAKARRECVSSTRGHKRRR | < 6570 |
| ILFMLFYYLSIYFIGTLGGIWLATYIMSFRENLVIQLVIARVCFIVALGVVMA | 35400 |
| MDAVSDAARESPDSERGAESEAKRRKVRKGTRSCWECKRRKIRCSFSTASDSV | 38000 |
| KILLNHNYFYFRMLCHHQTCNIYNLYHQIFLIFLQIIVSILLSLRIIALYLGN | 66400 |

| Sequence | transcriptional activation domain activity |
| --- | --- |
| MCVWELVLVLVVWCFRCFSFFHPLHFLPWLLYPSPLISLFFCLFYPLLFFVFF | 37900 |
| VVCRYYHLMMGRTFILLIFTQTLSGLVVYHGVCRSWEVLGCIAHLIKGGIFFF | 55800 |
| MFYNFFFFIIIYLCFFARMFLVVSRIVMLLAFLYSCLIPLLCGLVFFCIRFKS | 67300 |
| NLLYQLGVFVARSSTPFIRLHNLYLPSCLQILNLLLLVSQSLYWWIPSVYLVF | 76500 |
| RHRRHRRSRSRDREGGRDRGRDGRRDERREERKVERRNEGRDEGRVEGRGRDA | 40000 |
| MRKTCRFICNVTRMRTVWIKALERVCARHGVFKPTFPLQRMSILDLEYASLGP | 52200 |
| STGLKPQDPSSDGLRKLALLNILLSGEEDVVSTIPAQRLVFLVKHLLECLKSD | 24800 |
| MSLAYLILGFPIPPFLPYFLDVVLSPLSRFSPLPLVFPFVLWCPTSLPLFTSF | 51400 |
| KESRKERHHDSDRRHKRRHRSREGGEGRDRDRDHRRHHRHGRDRSRSRERKLG | 67400 |
| MIVVVLCLPSALTHLGCLFYHDPSSPFALVTFSVSLIIILPNLGVILFGFFNI | 48600 |
| DETNIHFDSMWCNDEYMKLKDIVDISTPFLPNNSQIFSLQESEYPNPSASTRG | 136000 |
| TKCSLDKMLPMLLPLKDALVHMDLMEYYFQTGYLYYLAFSCFILLLYPPFMVL | 53800 |
| SPSPSTTATPPASPSPPSRTKSTPRASSRSACAPSVTTPAGRPRSCARSGPRC | 38000 |
| DANASSSSTSSTQANNYIDFHWNNIKPELRDLICQSYKDFLINELGPDQIDLP | 51100 |
| FLYTLHIYDGQEGYHFLFNSFGNGSEWLQWSDGEQWALLYAQNYTMIIWVWYM | 15000 |
| ERERDRDRDRERDRDRDRERAREREHERNHERRKRRRERDRERRRGKSAAAAA | 33800 |
| LAQDPAGEQKKRRGRPPRYNVKLEPGEGDGAVTAPVKARKRKRESETPLSAPP | 33600 |
| MKGVCLKVGVVRPKKPNSGERKTARVRLSNGRQVTAYISGEGHNIQQHSVVLV | 53500 |
| SSSSSSSSESGSESDSGSDDGSASGSGDNSSTSSESESESDSGSEVDEKNNKN | 33900 |
| DLSKATKEVKEGGERKAAKGERETEQEKVEEGVKKLAVVDKKGGKNKTETNGS | 17700 |
| ILQNDLKFDQILESSYNNSNHTVSKFKVSHYVEESGLLDILMQRYGLTAEDFE | 57600 |
| AFLLFLIYLTLFCWVCFATSSTWVWSEILSDGQYTESFMPVNYVLLAVLSGII | 49600 |
| KKAEKQEGEDKEKEEKPKPSRGKKRKESEEPNGASAEGEEEPVAKKAKPASKA | 49000 |
| EEEGAVDEDEEEEDEEDPEERRKRELRERMAKMSGGMGMAGMFGGGMPMPGAA | 58900 |
